This note sets out measurements from patent publication US20250108096A1, “ALCOHOL CLEANSING METHODS” (Aperiam Bio, Inc., priority 2023, published 2025).

Format in all cases: in vivo
Experiment [1] has as its system ethanol levels in circulation. As to the kind of experiment: Blood ethanol in mice after intratracheal commercial ADH and ALDH (Example 5). The conditions noted are these: 4 g/kg ethanol oral gavage, intratracheal 60 minutes later: 2 mg or 600 U ADH, 10 mg or 20 U ALDH, each with 0.15 mmol NAD+, 2 mice per group, FIG. 6. The procedure:
Enzyme and Enzyme Solution: Alcohol dehydrogenase (ADH) from Saccharomyces cerevisiae lyophilized powder), ≥300 units/mg protein, was utilized (Sigma-Aldrich; A7011). NAD utilized was obtained commercially (Sigma-Aldrich; SKU 10127965001). The Enzyme plus NAD solution was prepared by diluting 100 mg of ADH and 100 mg of NAD in 2 mL of PBS. ADH plus NAD^+ solution was prepared by diluting 100 mg of ADH plus 100 mg NAD^+ in 2 mL of phosphate buffered saline (PBS) on the day the study protocol began.
Aldehyde dehydrogenase (ALDH) (lyophilized powder), ≥2.0 units/mg protein potassium-activated, 50 mg total (Cymit; CAS: 9028-88-0) was utilized. ALDH plus NAD^+ solution was prepared by diluting 50 mg ALDH and 100 mg NAD^+ in 0.500 mL of PBS on the day the study protocol began. Any unused ALDH plus NAD^+ solution was stored in a −80° C.
(§1) Ethanol Solution: Non-denatured ethanol was diluted to a 70% volume/volume solution.
(§2) Ethanol Detection: Ethanol was detected using the Sigma-Aldrich Ethanol Assay Kit (MAK076) according to the manufacturer's protocol for colorimetric detection. Several dilutions for a 5 μL blood draw were tested to ensure the sample was within the linear range of the standard curve. Working in a lab space exposed to ethanol vapors was avoided. […]

Experiment [2] relates to ethanol levels in circulation. As to the kind of experiment: Circulating ethanol levels after acute ethanol intoxication, ADH delivered to mouse lung (Example 1). The conditions noted are these: mice. As for the experimental part: Enzyme and Enzyme Solution: Alcohol dehydrogenase (ADH) from Saccharomyces cerevisiae lyophilized powder), ≥300 units/mg protein, was utilized (Sigma-Aldrich; A7011). NAD^+ utilized was obtained commercially (Sigma-Aldrich; SKU 10127965001). Enzyme solution was prepared by diluting 100 mg of ADH in 2 mL of phosphate buffered saline (PBS) on the day the study protocol began. The Enzyme plus NAD^+ solution was prepared by diluting 100 mg of ADH and 100 mg of NAD^+ in 2 mL of PBS.
Ethanol Solution: Non-denatured ethanol was diluted to a 20% weight/volume solution with PBS (4.3M ethanol solution).
Blood Draw Dilution: Blood was drawn from mice at time points zero, 30 minutes, 1 hour and/or 4 hours after ethanol gavage (FIG. 2) and diluted 100× in buffer. The blood was processed for plasma, 50 μl of blood from the tail vein at each time point was collected using 125 μl heparinized capillary tube (Fisher Sci Cat #14-915-64). Using a pipette the heparinized blood was forced out by air of the capillary tube and into a 0.6 ml mct. The tubes were kept on ice and subsequently spun down to recover the plasma. Plasma was removed and placed into a new tube and kept on ice until needed for the same day assay. […]
Ethanol Detection: Ethanol was detected using the Sigma-Aldrich Ethanol Assay Kit (MAK076) according to the manufacturer's protocol for colorimetric detection. […]

The test system of experiment [3] is ethanol levels in circulation. The experiment can be described thus: Blood ethanol in mice after intratracheal ADH, variant ALDH and variant NOX (Example 7). The settings on record: 2 g/kg ethanol oral gavage, intratracheal 60 minutes later: 300 μg ADH, 2.52 mg variant ALDH, 250 μg variant NOX, no NAD+, 2 mice per group, FIG. 8. The procedure: Enzyme and Enzyme Solution: Alcohol dehydrogenase (ADH) from Saccharomyces cerevisiae lyophilized powder), ≥300 units/mg protein, was utilized (Sigma-Aldrich; A7011). ADH solution was prepared by diluting 200 mg of ADH in 2 mL of phosphate buffered saline (PBS) on the day the study protocol began. A variant of human ALDH (hALDH2) and a variant of the Lactobacillus brevis NOX enzyme were utilized. The variant hALDH2 and variant NOX enzymes were generated in Escherichia coli and each comprise an N-terminal HIS-tag to facilitate purification. A variant hALDH2 solution was prepared at a concentration of 60 mg/mL and a variant NOX solution was prepared at 50 mg/mL.
as §1, §2

The subject of experiment [4] is ethanol levels in circulation. As to the kind of experiment: Alcohol clearance in mice by pulmonary delivery of ADH, Abcam Ethanol Detection kit (Example 2). The conditions noted are these: protocol of Example 1, FIG. 5. As for the experimental part:
However, the Abcam Ethanol Detection kit was utilized for ethanol detection and the experimental group delivered ADH and NAD^+ were administered 1 mg ADH, 0.15 mmole NAD^+ (as opposed to 2 mg ADH, 0.15 mmole NAD^+ utilized in Example 1).

The test system of experiment [5] is ethanol levels in circulation. As to the kind of experiment: Blood ethanol in mice after intratracheal yeast ADH and human ALDH2 variant (Example 6). The settings on record: 2 g/kg ethanol oral gavage, intratracheal 60 minutes later: 2 mg or 600 U ADH, 0.15 mmol NAD+, with or without 1.2 mg variant ALDH, 2 mice per group, FIG. 7. The procedure:
Enzyme and Enzyme Solution: Alcohol dehydrogenase (ADH) from Saccharomyces cerevisiae lyophilized powder), ≥300 units/mg protein, was utilized (Sigma-Aldrich; A7011). NAD^+ utilized was obtained commercially (Sigma-Aldrich; SKU 10127965001). The Enzyme plus NAD^+ solution was prepared by diluting 100 mg of ADH and 100 mg of NAD^+ in 2 mL of PBS. ADH plus NAD^+ solution was prepared by diluting 200 mg of ADH plus 200 mg NAD^+ in 2 mL of phosphate buffered saline (PBS) on the day the study protocol began. A variant of human ALDH was utilized.
as §1
Ethanol Detection: Ethanol was detected using the Abcam Ethanol Assay Kit (ab65343) according to the manufacturer's protocol for colorimetric detection. Several dilutions for a 5 μL blood draw were tested to ensure the sample was within the linear range of the standard curve. Working in a lab space exposed to ethanol vapors was avoided.
To evaluate the combined effect of ADH and a variant ALDH enzyme delivery to the lungs of mice on ethanol levels in circulation after acute ethanol intoxication, ethanol control and experimental group mice were administered 2 g/kg ethanol by oral gavage (90 μL of 70% ethanol solution for a 25 g mouse) at time one. […]

B1: Alcohol dehydrogenase (ADH) from Saccharomyces cerevisiae (protein, UniProt P00330 2-348, looked up)
Alcohol dehydrogenase 1: SIPETQKGVIFYESHGKLEYKDIPVPKPKANELLINVKYSGVCHTDLHAWHGDWPLPVKLPLVGGHEGAGVVVGMGENVKGWKIGDYAGIKWLNGSCMACEYCELGNESNCPHADLSGYTHDGSFQQYATADAVQAAHIPQGTDLAQVAPILCAGITVYKALKSANLMAGHWVAISGAAGGLGSLAVQYAKAMGYRVLGIDGGEGKEELFRSIGGEVFIDFTKEKDIVGAVLKATDGGAHGVINVSVSEAAIEASTRYVRANGTTVLVGMPAGAKCCSDVFNQVVKSISIVGSYVGNRADTREALDFFARGLVKSPIKVVGLSTLPEIYEKMEKGQIVGRYVVDTSK
notes: Commercial yeast alcohol dehydrogenase, lyophilized powder, ≥300 units/mg protein (Sigma-Aldrich; A7011)
Regarding B1, the “effect on removing alcohol (blood ethanol level)” value in experiment [1] is “stronger effect on removing alcohol compared to ALDH alone”. Further, the “blood alcohol levels relative to animals that were not administered ADH” value is “reduced” in experiment [2] (ethanol 2 g/kg oral gavage, ADH intratracheally 15 minutes after gavage, blood at 30 minutes, 1 hour, 4 hours, FIG. 3) and “reduced” in experiment [4]. Besides, the “circulating ethanol levels relative to control” value in experiment [2] (ethanol by oral gavage, intratracheal administration of ADH, FIG. 1) is “reduced”. Also, the “amount of alcohol in the blood” value in experiment [3] and in experiment [5] was “lowered the amount of alcohol in the blood” in each case.
